T1: GPR39 (Homo sapiens, UniProt O43194)
T1 sequence (O43194 1-453): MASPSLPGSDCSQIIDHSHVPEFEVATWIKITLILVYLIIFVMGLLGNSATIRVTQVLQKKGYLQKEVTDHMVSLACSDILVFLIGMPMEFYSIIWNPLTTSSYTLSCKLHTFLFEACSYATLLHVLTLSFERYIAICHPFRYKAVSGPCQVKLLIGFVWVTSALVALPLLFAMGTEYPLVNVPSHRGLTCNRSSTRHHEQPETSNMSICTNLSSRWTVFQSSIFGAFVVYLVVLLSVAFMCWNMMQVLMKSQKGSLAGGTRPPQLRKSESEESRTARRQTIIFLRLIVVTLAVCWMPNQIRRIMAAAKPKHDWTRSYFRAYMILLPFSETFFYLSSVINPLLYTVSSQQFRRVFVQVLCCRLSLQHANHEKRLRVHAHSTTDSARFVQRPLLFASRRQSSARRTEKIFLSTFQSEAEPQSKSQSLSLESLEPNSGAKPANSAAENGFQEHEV

T2: GPR39 (G protein coupled receptor 39) (UniProt O43194 1-453, limits assumed)
T2 sequence (looked up): T1 sequence (O43194 1-453)

B1: HKFY-39 (peptide)
peptide: H(Trt)K(Octanoyl)FYSQNGARF
modifications: also: C-terminal amide in IUPAC name, not in sequence formula, .39 lacks Gln-Asn
B2: HKFY-40 (peptide)
peptide: H(Trt)K(Octanoyl)FYSHQQARF
modifications: not fully specified; printed as His(trt)-Lys(caprylic)-Phe-Tyr-Ser-His-Gln-Gln-Ala-Arg-Phe
B3: HKFY-42 (peptide)
peptide: H(Trt)K(Octanoyl)FYHQQARF
modifications: not fully specified; printed as His(trt)-Lys(caprylic)-Phe-Tyr-His-Gln-Gln-Ala-Arg-Phe
B4: HKFY-38 (peptide)
peptide: H(Trt)K(Octanoyl)FYSDQQARF
modifications: not fully specified; printed as His(trt)-Lys(caprylic)-Phe-Tyr-Ser-Asp-Gln-Gln-Ala-Arg-Phe

Square brackets hold non-standard residues; d marks the D form. Ends that are not written are not given here. Peptide text beside a SMILES is read from it. * marks the point of attachment. dHis(Trt) = N[C@H](Cc1cn(C(c2ccccc2)(c2ccccc2)c2ccccc2)cn1)C(=O)O; 4‑methoxylbenzhydryl = COc1ccc(C(c2ccccc2)*)cc1; Biotin = O=C1N[C@H]2[C@H](CS[C@H]2CCCCC(=O)*)N1; 4‑chlorobenzhydryl = Clc1ccc(C(c2ccccc2)*)cc1; Bip = N[C@@H](Cc1ccc(-c2ccccc2)cc1)C(=O)O; dPhe(4-Br) = N[C@H](Cc1ccc(Br)cc1)C(=O)O; dPhe(4-Me) = Cc1ccc(C[C@@H](N)C(=O)O)cc1; Trt = c1ccc(C(c2ccccc2)(c2ccccc2)*)cc1; dPhe(4-F) = N[C@H](Cc1ccc(F)cc1)C(=O)O; Dmt = Cc1cc(O)cc(C)c1C[C@H](N)C(=O)O; Benzhydryl = c1ccc(C(c2ccccc2)*)cc1; Palmitoyl = CCCCCCCCCCCCCCCC(=O)*; Myristoyl = CCCCCCCCCCCCCC(=O)*; Lauroyl = CCCCCCCCCCCC(=O)*; Decanoyl = CCCCCCCCCC(=O)*; Octanoyl = CCCCCCCC(=O)*; SO3H = O=S(=O)(O)*; Bn = c1ccc(C*)cc1

In one data set the target is T1, GPR39. The data set can be described thus: luciferase assay system (SRE luciferase reporter gene, CV-1 cells expressing GPR39). Format: cell-based. Details: expressed in transfected cells; host or cells: CV-1 fibroblast cell line (Korea Cell Line Bank), adenoviral transduction at 50 MOI. (In general: In a reporter assay the amount or activity of a reporter protein is the signal.)
For `CCCCCCCC(=O)NCCCC[C@H](NC(=O)[C@H](N)Cc1cn(C(c2ccccc2)(c2ccccc2)c2ccccc2)cn1)C(=O)N[C@H](Cc1ccc(C)cc1)C(=O)N[C@@H](Cc1ccc(O)cc1)C(=O)O` [HKFY-31, ((R)-2-((S)-2-((R)-2-amino-3-(1-trityl-1H-imidazol-4-yl)propanamido)-6-octanamidohexanamido)-3-(p-tolyl)propanoyl)-L-tyrosine] (H-[dHis(Trt)]K(Octanoyl)[dPhe(4-Me)]Y-OH), the “ECmax (−fold induction over basal)” value was found to be 20.9 ± 2.51 fold induction over basal.

For a further data set, the target named is T2, GPR39 (G protein coupled receptor 39). The data set can be described thus: cell-based or functional assay.
On to H(Trt)K(Octanoyl)[dPhe(4-F)]Y-OH [HKFY-28], for which the “EC50; SRE-luciferase reporter” value was 74 nM and the “ECmax; SRE-luciferase reporter” value was 22.9 -fold induction over basal.

With H(4‑chlorobenzhydryl)K(Octanoyl)FY [HKFY-21], the “EC50; SRE-luciferase reporter” value stood at 136000 nM and the “ECmax; SRE-luciferase reporter” value is 18.3 -fold induction over basal. Consider HK(Octanoyl)FY (not fully specified (residue 1)) [HKFY-17], for which the “EC50; SRE-luciferase reporter” value was determined as 8120 nM and the “ECmax; SRE-luciferase reporter” value is 20 -fold induction over basal. For His(Trt)-Lys(Octanoyl)-Phe-OH [HKFY-49], in that order: 320 nM and 18.3 -fold induction over basal.

On to B1, for which the “ECmax; SRE-luciferase reporter” value is 12.1 -fold induction over basal. Take HK(Octanoyl)[dPhe(4-Me)]Y (not fully specified (residue 1)) [HKFY-32]: the “EC50; SRE-luciferase reporter” value was 2 nM and the “ECmax; SRE-luciferase reporter” value is 21.5 -fold induction over basal. The matching figures for H(Trt)K(Palmitoyl)FY-OH [HKFY-27]: 560 nM and 20.4 -fold induction over basal. For H(Trt)K(Octanoyl)FW [HKFY-46], in that order: 260 nM and 20 -fold induction over basal. On to H(Bn)K(Octanoyl)FY [HKFY-3], for which the “EC50; SRE-luciferase reporter” value is 4130 nM and the “ECmax; SRE-luciferase reporter” value was 9.2 -fold induction over basal.

For the molecule Biotin-H(Trt)K(Octanoyl)[Bip]Y [HKFY-45], the “EC50; SRE-luciferase reporter” value came to 140 nM and the “ECmax; SRE-luciferase reporter” value is 21 -fold induction over basal.

For the molecule H(Benzhydryl)K(Octanoyl)[dPhe(4-Me)][Dmt] [HKFY-36], the “EC50; SRE-luciferase reporter” value stood at 150 nM and the “ECmax; SRE-luciferase reporter” value was 9.9 -fold induction over basal. For B2, in that order: 1300 nM and 13.4 -fold induction over basal.

Regarding GSH(Trt)K(Octanoyl)FY [HKFY-37], the “EC50; SRE-luciferase reporter” value amounted to 1840 nM and the “ECmax; SRE-luciferase reporter” value is 16 -fold induction over basal. Turning to H(Trt)K(Octanoyl)[dPhe(4-Br)]Y-OH [HKFY-29], the “EC50; SRE-luciferase reporter” value is 310 nM and the “ECmax; SRE-luciferase reporter” value is 26.8 -fold induction over basal. The matching figures for H(4‑methylbenzhydryl)K(Octanoyl)FY [HKFY-22]: 59800 nM and 21.3 -fold induction over basal.

For H(Trt)K(Decanoyl)FY-OH [HKFY-24], the “EC50; SRE-luciferase reporter” value is 240 nM and the “ECmax; SRE-luciferase reporter” value is 7.03 -fold induction over basal.

As for HK(Octanoyl)FY (not fully specified; also: His1 substituent: phenethyl or phenylpropyl) [HKFY-19], the “EC50; SRE-luciferase reporter” value was 24600 nM and the “ECmax; SRE-luciferase reporter” value is 18 -fold induction over basal. Regarding B3, the “EC50; SRE-luciferase reporter” value worked out at 1580 nM and the “ECmax; SRE-luciferase reporter” value was 11.8 -fold induction over basal. The matching figures for H(Trt)K(Octanoyl)YF-OH [HKFY-47]: 300 nM and 13 -fold induction over basal. For H(Trt)K(Octanoyl)FYQNGARF (not fully specified (C-terminus)) [HKFY-41], in that order: 9550 nM and 12.2 -fold induction over basal. For H(4‑methoxylbenzhydryl)K(Octanoyl)FY [HKFY-20], in that order: 159000 nM and 20.3 -fold induction over basal. H(Trt)K(Octanoyl)FYW [HKFY-44]: the “EC50; SRE-luciferase reporter” value stood at 370 nM and the “ECmax; SRE-luciferase reporter” value was 20 -fold induction over basal. For [dH](Trt)K(Octanoyl)FY [HKFY-4], in that order: 130 nM and 16.8 -fold induction over basal. In the case of HK(Octanoyl)FY (not fully specified; also: His1 substituent: adamantan-1-yl or adamantanmethyl) [HKFY-23], the “EC50; SRE-luciferase reporter” value is 2600 nM and the “ECmax; SRE-luciferase reporter” value was 15 -fold induction over basal. On to H(Benzhydryl)K(Octanoyl)FY [HKFY-33], for which the “EC50; SRE-luciferase reporter” value was determined as 150 nM and the “ECmax; SRE-luciferase reporter” value is 20 -fold induction over basal. The matching figures for H(Trt)K(Octanoyl)[dPhe(4-Me)]Y [HKFY-30]: 8 nM and 23.9 -fold induction over basal. Consider H(Trt)K(Octanoyl)YY-OH [HKFY-48], for which the “EC50; SRE-luciferase reporter” value is 330 nM and the “ECmax; SRE-luciferase reporter” value was 14.4 -fold induction over basal. For [dH](Trt)K(Octanoyl)[dPhe(4-Me)]Y [HKFY-31], in that order: 20 nM and 20.9 -fold induction over basal. For H(Benzhydryl)K(Octanoyl)[dPhe(4-Me)]Y(SO3H) [HKFY-35], the “EC50; SRE-luciferase reporter” value amounted to 280 nM and the “ECmax; SRE-luciferase reporter” value was 18.9 -fold induction over basal. For H(Trt)K(Myristoyl)FY-OH [HKFY-26], in that order: 280 nM and 19.8 -fold induction over basal. The matching figures for H(Trt)K(Octanoyl)FYQNQARF (also: C-terminal Phe amide in IUPAC name, not in sequence formula) [HKFY-43]: 1210 nM and 12.1 -fold induction over basal. As for H(Fm)K(Octanoyl)FY [HKFY-18], the “EC50; SRE-luciferase reporter” value was found to be 2290 nM and the “ECmax; SRE-luciferase reporter” value was 10 -fold induction over basal. The matching figures for H(Trt)K(Lauroyl)FY-OH [HKFY-25]: 630 nM and 7.72 -fold induction over basal. The matching figures for B4: 3500 nM and 16.5 -fold induction over basal.

These data come from patent US20250340591A1, “COMPOSITION FOR PREVENTING OR TREATING INFLAMMATORY BOWEL DISEASE CONTAINING NOVEL COMPOUND” (ANYGEN CO., LTD., priority 2021, published 2025).
